Source: article PMC3668751, “Assembly of the Yeast Exoribonuclease Rrp6 with Its Associated Cofactor Rrp47 Occurs in the Nucleus and Is Critical for the Controlled Expression of Rrp47*” (The Journal of Biological Chemistry, 2013)

B1: Recombinant full-length His6-Rrp47 (natural protein, S. cerevisiae, UniProt P38801 1-184, looked up)
chain: MEDIEKIKPYVRSFSKALDELKPEIEKLTSKSLDEQLLLLSDERAKLELINRYAYVLSSLMFANMKVLGVKDMSPILGELKRVKSYMDKAKQYDNRITKSNEKSQAEQEKAKNIISNVLDGNKNQFEPSISRSNFQGKHTKFENDELAESTTTKIIDSTDHIRKASSKKSKRLDKVGKKKGGKK
notes: Rrp47 (also known as Lrp1), S. cerevisiae, full-length recombinant protein; On its own a non-globular homodimer (theoretical homodimer mass 50,920 Da with the tag); One copy stands in the heterodimer with Rrp6NT; also called His-Rrp47; Lrp1; source: for the complex, co-lysed with cells expressing Rrp6NT

Columns and labels:
[1] = target: the molecule itself; test: AUC; sedimentation velocity, 38,000 rpm, 20 °C, 50 mM Hepes pH 7.6, 500 mM NaCl, 0.25 and 1 mg/ml, absorbance at 280 nm, SEDFIT
[2] = target: B1; test: pull-down + SEC; E. coli cells expressing His6-Rrp47 or GST-Rrp6NT lysed together; Ni-NTA, then glutathione-Sepharose, then Superdex 200; 50 mM HEPES pH 7.6, 300 mM NaCl; ratio from densitometry of the Coomassie-stained SDS-PAGE of the peak fraction
[3] = target: the molecule itself; test: cross-linking; 0.01% glutaraldehyde on ice, ~40 µM protein, 50 mM HEPES pH 7.6, 300 mM NaCl; SDS-PAGE and Western blot

For B1, the “stoichiometry N” value [1] was 2.

B2: GST-Rrp6NT (domain or fragment, S. cerevisiae, UniProt Q12149 1-211, looked up)
chain: MTSENPDVLLSRVINVVRAASSLASQDVDFYKNLDRGFSKDLKSKADKLADMANEIILSIDEHHESFELKEEDISDLWNNFGNIMDNLLEMSDHSLDKLNCAINSKSRGSDLQYLGEFSGKNFSPTKRVEKPQLKFKSPIDNSESHPFIPLLKEKPNALKPLSESLRLVDDDENNPSHYPHPYEYEIDHQEYSPEILQIREEIPSKSWDDS
notes: Rrp6, S. cerevisiae, N-terminal region (Rrp6NT, holds the PMC2NT domain); The preparation held some proteolytic fragments of the GST fusion; also called Rrp6NT domain; N-terminal region of Rrp6; source: E. coli, co-lysed with cells expressing His6-Rrp47; complex purified (Ni-NTA, glutathione-Sepharose, Superdex 200)
For B2, the “stoichiometry N” value [2] was 0.8 Rrp6NT per Rrp47.

B3: C-terminally truncated Rrp47NT protein (domain or fragment, S. cerevisiae, UniProt P38801 1-120, looked up)
chain: MEDIEKIKPYVRSFSKALDELKPEIEKLTSKSLDEQLLLLSDERAKLELINRYAYVLSSLMFANMKVLGVKDMSPILGELKRVKSYMDKAKQYDNRITKSNEKSQAEQEKAKNIISNVLD
notes: Rrp47 (Lrp1), S. cerevisiae, N-terminal domain; the discussion gives it as the first 120 amino acid residues; it probably carries a His tag like the full-length protein; also called N-terminal domain of Rrp47; Rrp47NT polypeptide
In the case of B3, the “stoichiometry N” value [3] is reported as 2.
